Publication PMC8307404, “Crystal Structure-Guided Design of Bisubstrate Inhibitors and Photoluminescent Probes for Protein Kinases of the PIM Family” (Molecules, 2021)
Square brackets hold non-standard residues; d marks the D form. Peptide text beside a SMILES is read from it. * marks the point of attachment. X3 = O=C(CCCCCNCc1nc2c(sc3cc(Br)cnc32)c(=O)[nH]1)*

Legend:
Assay in all cases: Kinase profiling (radiometric filter-binding)
Assay type in all cases: biochemical
MINK1 = MINK1 (Homo sapiens, UniProt Q8N4C8); conditions: MINK1, 1 µM inhibitor; read-out: Residual activity, %
Outline: (§1)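 Human kinases were tested in a radiometric filter-binding panel with ATP at or below each enzyme's KM. Inhibitors were present at a final concentration of 1 µM, and residual activity was reported as a percentage of the uninhibited control.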

p38 MAPK = p38 MAPK (Homo sapiens, UniProt Q16539); conditions: first of four lines (Greek letter lost), 1 µM inhibitor, read-out: Residual activity, %
Outline: as §1

IRAK4 = target: T1, IRAK4 (Homo sapiens, UniProt Q9NWZ3); conditions: IRAK4, 1 µM inhibitor; read-out: Residual activity, %
T1 sequence (Q9NWZ3 1-460): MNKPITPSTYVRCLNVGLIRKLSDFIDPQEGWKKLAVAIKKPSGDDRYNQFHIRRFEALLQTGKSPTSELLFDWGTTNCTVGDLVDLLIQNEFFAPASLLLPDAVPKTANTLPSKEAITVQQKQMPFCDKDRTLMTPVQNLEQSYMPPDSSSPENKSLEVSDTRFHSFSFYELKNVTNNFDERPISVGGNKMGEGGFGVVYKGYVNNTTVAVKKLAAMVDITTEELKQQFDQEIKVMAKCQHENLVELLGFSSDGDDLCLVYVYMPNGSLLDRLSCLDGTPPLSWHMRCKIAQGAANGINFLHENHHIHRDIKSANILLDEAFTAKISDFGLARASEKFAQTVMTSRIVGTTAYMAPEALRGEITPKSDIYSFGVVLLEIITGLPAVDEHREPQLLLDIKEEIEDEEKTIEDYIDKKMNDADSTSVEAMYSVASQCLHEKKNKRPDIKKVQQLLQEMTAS
Outline: as §1

TIE2 = TIE2 (Homo sapiens, UniProt Q02763); conditions: TIE2, 1 µM inhibitor; read-out: Residual activity, %
Outline: as §1

TTK = target: T2, TTK (Homo sapiens, UniProt P33981); conditions: 1 µM inhibitor, read-out: Residual activity, %
T2 sequence (P33981 1-857): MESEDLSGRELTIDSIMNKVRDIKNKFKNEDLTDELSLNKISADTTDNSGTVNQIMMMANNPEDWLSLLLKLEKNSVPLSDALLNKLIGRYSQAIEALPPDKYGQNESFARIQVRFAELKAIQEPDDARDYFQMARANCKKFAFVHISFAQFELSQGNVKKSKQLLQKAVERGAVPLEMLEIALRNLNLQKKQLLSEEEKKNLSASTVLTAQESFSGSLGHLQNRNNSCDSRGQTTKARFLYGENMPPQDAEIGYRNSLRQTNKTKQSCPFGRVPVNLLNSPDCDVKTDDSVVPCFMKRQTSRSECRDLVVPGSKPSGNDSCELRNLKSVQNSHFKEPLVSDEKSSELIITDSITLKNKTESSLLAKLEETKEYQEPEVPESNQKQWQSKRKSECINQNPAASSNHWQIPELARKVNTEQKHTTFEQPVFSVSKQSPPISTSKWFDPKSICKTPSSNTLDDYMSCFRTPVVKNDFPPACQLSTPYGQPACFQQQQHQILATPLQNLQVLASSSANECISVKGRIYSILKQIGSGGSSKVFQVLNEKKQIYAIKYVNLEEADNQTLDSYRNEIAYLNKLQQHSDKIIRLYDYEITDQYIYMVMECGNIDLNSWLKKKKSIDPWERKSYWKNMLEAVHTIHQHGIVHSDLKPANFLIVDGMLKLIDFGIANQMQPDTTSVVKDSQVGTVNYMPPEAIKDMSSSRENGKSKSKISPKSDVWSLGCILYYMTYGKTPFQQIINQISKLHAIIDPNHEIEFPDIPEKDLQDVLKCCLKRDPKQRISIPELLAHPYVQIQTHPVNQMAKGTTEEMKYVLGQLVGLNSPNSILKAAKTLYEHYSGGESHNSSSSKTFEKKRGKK
Outline: as §1

Lck = Lck (Homo sapiens, UniProt P06239); conditions: 1 µM inhibitor, read-out: Residual activity, %
Outline: as §1

TTBK1 = TTBK1 (Homo sapiens, UniProt Q5TCY1); conditions: TTBK1, 1 µM inhibitor; read-out: Residual activity, %
Outline: as §1

DYRK3 = target: T3, DYRK3 (Homo sapiens, UniProt O43781); conditions: DYRK3, 1 µM inhibitor; read-out: Residual activity, %
T3 sequence (O43781 1-588): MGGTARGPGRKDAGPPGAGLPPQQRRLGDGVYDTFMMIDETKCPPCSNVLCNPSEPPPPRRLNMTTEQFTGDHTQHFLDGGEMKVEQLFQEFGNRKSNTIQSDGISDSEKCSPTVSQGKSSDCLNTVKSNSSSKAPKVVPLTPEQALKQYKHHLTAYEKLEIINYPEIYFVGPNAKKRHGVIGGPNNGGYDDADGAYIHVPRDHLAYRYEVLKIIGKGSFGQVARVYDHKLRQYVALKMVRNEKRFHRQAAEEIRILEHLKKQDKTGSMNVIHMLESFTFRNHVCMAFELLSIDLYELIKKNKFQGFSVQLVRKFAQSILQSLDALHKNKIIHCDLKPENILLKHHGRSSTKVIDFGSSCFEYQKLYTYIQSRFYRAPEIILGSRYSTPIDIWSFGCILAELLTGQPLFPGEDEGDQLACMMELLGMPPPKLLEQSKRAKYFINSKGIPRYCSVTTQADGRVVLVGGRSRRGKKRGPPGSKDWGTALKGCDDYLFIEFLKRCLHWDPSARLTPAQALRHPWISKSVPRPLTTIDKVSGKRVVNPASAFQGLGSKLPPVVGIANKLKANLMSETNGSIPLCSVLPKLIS
Outline: as §1

HIPK3 = HIPK3 (Homo sapiens, UniProt Q9H422); conditions: HIPK3, 1 µM inhibitor; read-out: Residual activity, %
Outline: as §1

Sequence of Lck (P06239 whole entry): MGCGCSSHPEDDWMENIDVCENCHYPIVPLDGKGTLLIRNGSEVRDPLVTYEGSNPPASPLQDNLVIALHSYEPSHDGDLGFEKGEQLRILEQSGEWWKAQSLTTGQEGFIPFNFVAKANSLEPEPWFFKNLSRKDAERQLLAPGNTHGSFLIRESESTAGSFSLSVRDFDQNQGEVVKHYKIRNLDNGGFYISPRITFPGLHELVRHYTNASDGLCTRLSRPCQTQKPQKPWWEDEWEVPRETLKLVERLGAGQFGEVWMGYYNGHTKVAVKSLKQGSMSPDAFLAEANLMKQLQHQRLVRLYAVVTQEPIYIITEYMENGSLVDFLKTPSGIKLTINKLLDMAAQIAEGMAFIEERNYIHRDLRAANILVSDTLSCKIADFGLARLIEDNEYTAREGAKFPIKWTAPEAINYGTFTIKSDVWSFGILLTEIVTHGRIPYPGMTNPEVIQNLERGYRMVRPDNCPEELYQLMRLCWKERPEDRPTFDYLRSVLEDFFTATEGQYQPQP
Sequence of TTBK1 (Q5TCY1 whole entry): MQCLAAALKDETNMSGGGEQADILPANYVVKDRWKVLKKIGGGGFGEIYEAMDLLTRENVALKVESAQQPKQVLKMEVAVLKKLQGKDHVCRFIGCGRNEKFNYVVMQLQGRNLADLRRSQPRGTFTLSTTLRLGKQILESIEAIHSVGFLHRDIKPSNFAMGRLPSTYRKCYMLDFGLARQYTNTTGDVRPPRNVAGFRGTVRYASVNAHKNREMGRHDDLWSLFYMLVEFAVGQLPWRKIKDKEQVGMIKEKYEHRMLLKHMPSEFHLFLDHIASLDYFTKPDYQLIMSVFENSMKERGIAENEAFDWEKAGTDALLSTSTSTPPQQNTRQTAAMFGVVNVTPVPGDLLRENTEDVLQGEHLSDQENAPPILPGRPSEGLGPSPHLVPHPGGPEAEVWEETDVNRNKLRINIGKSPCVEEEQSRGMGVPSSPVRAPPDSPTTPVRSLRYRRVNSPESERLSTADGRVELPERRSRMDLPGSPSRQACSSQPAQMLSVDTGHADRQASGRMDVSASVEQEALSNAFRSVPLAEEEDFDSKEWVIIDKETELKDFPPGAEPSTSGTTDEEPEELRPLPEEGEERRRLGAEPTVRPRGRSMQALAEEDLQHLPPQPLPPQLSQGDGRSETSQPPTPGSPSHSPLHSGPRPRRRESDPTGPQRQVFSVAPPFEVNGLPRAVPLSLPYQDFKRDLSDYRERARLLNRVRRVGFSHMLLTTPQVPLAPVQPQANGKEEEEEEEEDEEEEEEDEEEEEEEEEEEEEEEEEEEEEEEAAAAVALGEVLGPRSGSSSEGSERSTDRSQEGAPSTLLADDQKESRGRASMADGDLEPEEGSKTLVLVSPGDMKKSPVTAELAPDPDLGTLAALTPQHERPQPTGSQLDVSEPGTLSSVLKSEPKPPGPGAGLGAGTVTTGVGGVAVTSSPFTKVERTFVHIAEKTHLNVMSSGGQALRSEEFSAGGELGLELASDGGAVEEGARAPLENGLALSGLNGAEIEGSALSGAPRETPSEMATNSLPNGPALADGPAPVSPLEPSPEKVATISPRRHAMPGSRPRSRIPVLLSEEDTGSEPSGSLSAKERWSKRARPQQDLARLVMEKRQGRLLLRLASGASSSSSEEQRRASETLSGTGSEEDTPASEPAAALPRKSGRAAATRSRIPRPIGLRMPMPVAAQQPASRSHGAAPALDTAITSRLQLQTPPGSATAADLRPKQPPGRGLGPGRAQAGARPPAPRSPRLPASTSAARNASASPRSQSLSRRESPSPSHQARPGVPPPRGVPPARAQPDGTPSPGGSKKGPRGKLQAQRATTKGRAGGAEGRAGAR
Sequence of MINK1 (Q8N4C8 whole entry): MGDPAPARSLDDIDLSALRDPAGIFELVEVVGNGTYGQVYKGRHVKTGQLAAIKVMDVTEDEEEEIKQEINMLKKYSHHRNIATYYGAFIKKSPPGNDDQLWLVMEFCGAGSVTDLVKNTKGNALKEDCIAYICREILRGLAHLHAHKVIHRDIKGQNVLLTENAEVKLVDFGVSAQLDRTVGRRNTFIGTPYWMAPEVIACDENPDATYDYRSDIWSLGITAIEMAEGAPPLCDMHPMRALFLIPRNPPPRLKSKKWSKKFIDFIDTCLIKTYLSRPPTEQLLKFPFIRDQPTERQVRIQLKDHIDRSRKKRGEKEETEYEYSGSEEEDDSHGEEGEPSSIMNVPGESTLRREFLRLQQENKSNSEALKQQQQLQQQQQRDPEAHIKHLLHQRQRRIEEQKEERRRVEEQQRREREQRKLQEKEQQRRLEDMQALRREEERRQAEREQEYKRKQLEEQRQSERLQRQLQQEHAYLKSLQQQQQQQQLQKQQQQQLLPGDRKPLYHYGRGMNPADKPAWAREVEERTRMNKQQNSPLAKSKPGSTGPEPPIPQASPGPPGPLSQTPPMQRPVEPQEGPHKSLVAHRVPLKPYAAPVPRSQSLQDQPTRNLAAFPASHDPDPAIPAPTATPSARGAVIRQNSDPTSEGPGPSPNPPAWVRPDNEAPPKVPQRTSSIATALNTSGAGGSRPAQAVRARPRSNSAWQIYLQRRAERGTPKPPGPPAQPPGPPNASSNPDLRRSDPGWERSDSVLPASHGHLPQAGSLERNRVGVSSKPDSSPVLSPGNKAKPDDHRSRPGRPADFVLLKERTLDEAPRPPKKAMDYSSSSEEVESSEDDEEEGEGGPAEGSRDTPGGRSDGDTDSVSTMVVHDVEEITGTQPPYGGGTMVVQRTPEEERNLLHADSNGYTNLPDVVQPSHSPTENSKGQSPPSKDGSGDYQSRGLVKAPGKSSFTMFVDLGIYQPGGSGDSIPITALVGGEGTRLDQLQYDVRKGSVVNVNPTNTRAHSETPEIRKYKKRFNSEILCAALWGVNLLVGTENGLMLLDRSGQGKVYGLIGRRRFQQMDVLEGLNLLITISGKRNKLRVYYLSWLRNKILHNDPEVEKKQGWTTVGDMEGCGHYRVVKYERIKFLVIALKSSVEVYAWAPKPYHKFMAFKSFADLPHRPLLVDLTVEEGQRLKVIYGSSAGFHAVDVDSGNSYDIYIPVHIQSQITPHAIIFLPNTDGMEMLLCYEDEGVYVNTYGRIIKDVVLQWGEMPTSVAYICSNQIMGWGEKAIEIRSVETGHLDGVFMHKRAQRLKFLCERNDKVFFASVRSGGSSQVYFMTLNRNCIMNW
Sequence of p38 MAPK (Q16539 whole entry): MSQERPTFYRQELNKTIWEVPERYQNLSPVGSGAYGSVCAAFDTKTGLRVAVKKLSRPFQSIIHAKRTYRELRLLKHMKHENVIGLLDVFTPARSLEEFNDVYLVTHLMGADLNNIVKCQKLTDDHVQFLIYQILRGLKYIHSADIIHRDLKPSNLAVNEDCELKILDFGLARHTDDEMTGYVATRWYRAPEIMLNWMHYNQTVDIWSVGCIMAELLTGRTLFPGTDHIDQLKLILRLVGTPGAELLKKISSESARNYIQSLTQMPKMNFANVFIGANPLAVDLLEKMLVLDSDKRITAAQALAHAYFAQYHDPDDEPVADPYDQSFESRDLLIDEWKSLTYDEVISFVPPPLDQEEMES
Sequence of HIPK3 (Q9H422 whole entry): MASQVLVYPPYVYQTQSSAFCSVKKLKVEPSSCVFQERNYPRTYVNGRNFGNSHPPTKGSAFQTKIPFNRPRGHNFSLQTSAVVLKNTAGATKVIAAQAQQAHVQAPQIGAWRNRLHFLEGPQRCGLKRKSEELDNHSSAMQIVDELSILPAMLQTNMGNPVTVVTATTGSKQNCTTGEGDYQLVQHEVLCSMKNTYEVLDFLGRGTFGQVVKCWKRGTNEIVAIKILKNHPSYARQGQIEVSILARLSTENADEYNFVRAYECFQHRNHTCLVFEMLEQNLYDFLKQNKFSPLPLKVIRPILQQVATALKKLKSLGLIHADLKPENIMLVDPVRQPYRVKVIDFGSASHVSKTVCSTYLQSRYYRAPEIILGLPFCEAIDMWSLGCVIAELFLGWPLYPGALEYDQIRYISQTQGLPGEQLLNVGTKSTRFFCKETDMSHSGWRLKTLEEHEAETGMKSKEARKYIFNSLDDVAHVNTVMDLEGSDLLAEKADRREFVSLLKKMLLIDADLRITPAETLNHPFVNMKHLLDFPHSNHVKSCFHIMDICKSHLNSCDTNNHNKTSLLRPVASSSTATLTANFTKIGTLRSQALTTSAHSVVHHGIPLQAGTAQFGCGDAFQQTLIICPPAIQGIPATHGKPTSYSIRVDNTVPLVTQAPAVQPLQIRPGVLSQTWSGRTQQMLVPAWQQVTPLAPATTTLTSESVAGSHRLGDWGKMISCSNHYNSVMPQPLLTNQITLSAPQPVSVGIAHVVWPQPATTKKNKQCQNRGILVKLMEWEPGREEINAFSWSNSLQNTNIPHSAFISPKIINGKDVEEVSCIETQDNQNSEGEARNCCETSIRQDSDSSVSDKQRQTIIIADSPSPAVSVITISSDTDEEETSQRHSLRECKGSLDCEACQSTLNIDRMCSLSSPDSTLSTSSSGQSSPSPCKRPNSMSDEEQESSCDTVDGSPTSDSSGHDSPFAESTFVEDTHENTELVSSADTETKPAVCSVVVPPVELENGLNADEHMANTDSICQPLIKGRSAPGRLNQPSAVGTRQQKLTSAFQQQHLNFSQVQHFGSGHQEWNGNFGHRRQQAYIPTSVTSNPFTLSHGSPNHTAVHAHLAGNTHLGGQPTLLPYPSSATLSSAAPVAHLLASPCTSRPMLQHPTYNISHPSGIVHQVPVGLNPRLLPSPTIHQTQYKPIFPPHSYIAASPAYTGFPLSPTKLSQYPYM

N=C(N)NCCC[C@@H](NC(=O)CNC(=O)[C@@H](CCCNC(=N)N)NC(=O)[C@@H](CCCNC(=N)N)NC(=O)CCCCCCCNCc1nc2c(sc3cc(Br)cnc32)c(=O)[nH]1)C(=O)N[C@H](CCCCN)C(N)=O [Compound 1, BPTP-Aoc-(D-Arg)2-Gly-D-Arg-D-Lys-NH2]
remaining activity at 1 µM (MINK1): 129 ± 2% | remaining activity at 1 µM (p38 MAPK): 113 ± 10% | remaining activity at 1 µM (IRAK4): 110 ± 3% | remaining activity at 1 µM (TIE2): 110 ± 6% | remaining activity at 1 µM (TTK): 113% | remaining activity at 1 µM (Lck): 94 ± 18% | remaining activity at 1 µM (TTBK1): 116 ± 5% | remaining activity at 1 µM (DYRK3): 43 ± 6% | remaining activity at 1 µM (HIPK3): 116 ± 15%

N=C(N)NCCC[C@@H](NC(=O)CCCCCNCc1nc2c(sc3cc(Br)cnc32)c(=O)[nH]1)C(=O)N[C@H](CCCNC(=N)N)C(=O)N[C@H](CCCNC(=N)N)C(=O)N[C@H](CCCNC(=N)N)C(=O)N[C@H](CCCNC(=N)N)C(=O)N[C@H](CCCNC(=N)N)C(=O)N[C@H](CCCCN)C(N)=O [ARC-3126, BPTP-Ahx-(D-Arg)6-D-Lys-NH2] (X3-[dR][dR][dR][dR][dR][dR][dK]-NH2)
remaining activity at 1 µM (MINK1): 104 ± 16% | remaining activity at 1 µM (p38 MAPK): 116 ± 4% | remaining activity at 1 µM (IRAK4): 97 ± 2% | remaining activity at 1 µM (TIE2): 106% | remaining activity at 1 µM (TTK): 110 ± 4% | remaining activity at 1 µM (Lck): 132 ± 28% | remaining activity at 1 µM (TTBK1): 103 ± 4% | remaining activity at 1 µM (DYRK3): 82 ± 1% | remaining activity at 1 µM (HIPK3): 93 ± 2%

N=C(N)NCCC[C@@H](NC(=O)CCCCCNC(=O)Cn1cnc2c(I)c(I)c(I)c(I)c21)C(=O)N[C@H](CCCNC(=N)N)C(=O)N[C@H](CCCNC(=N)N)C(=O)N[C@H](CCCNC(=N)N)C(=O)N[C@H](CCCNC(=N)N)C(=O)N[C@H](CCCNC(=N)N)C(=O)N[C@H](CCCCN)C(N)=O [ARC-3125, TIBI-CH2-C(=O)-Ahx-(D-Arg)6-D-Lys-NH2]
remaining activity at 1 µM (MINK1): 86 ± 1% | remaining activity at 1 µM (p38 MAPK): 53 ± 8% | remaining activity at 1 µM (IRAK4): 73 ± 2% | remaining activity at 1 µM (TIE2): 104 ± 9% | remaining activity at 1 µM (TTK): 45 ± 1% | remaining activity at 1 µM (Lck): 226 ± 7% | remaining activity at 1 µM (TTBK1): 123 ± 25% | remaining activity at 1 µM (DYRK3): 22 ± 2% | remaining activity at 1 µM (HIPK3): 21%

N=C(N)NCCC[C@@H](NC(=O)CNC(=O)[C@@H](CCCNC(=N)N)NC(=O)[C@@H](CCCNC(=N)N)NC(=O)CCCCCCCNCc1nc2c(sc3ccc(Br)cc32)c(=O)[nH]1)C(=O)N[C@H](CCCCN)C(N)=O [Compound 2, BBTP-Aoc-(D-Arg)2-Gly-D-Arg-D-Lys-NH2]
remaining activity at 1 µM (MINK1): 106 ± 13% | remaining activity at 1 µM (p38 MAPK): 116 ± 10% | remaining activity at 1 µM (IRAK4): 108 ± 8% | remaining activity at 1 µM (TIE2): 109 ± 9% | remaining activity at 1 µM (TTK): 94 ± 15% | remaining activity at 1 µM (Lck): 103 ± 18% | remaining activity at 1 µM (TTBK1): 97 ± 7% | remaining activity at 1 µM (DYRK3): 34 ± 2% | remaining activity at 1 µM (HIPK3): 72 ± 12%

N=C(N)NCCC[C@@H](NC(=O)CNC(=O)[C@@H](CCCNC(=N)N)NC(=O)[C@@H](CCCNC(=N)N)NC(=O)Cn1cc(CNCc2nc3c(sc4ccc(Br)cc43)c(=O)[nH]2)nn1)C(=O)N[C@H](CCCCN)C(N)=O [Compound 3, BBTP-Amt-(D-Arg)2-Gly-D-Arg-D-Lys-NH2]
remaining activity at 1 µM (MINK1): 133 ± 14% | remaining activity at 1 µM (p38 MAPK): 110 ± 7% | remaining activity at 1 µM (IRAK4): 107 ± 7% | remaining activity at 1 µM (TIE2): 103 ± 12% | remaining activity at 1 µM (TTK): 86 ± 9% | remaining activity at 1 µM (Lck): 78 ± 6% | remaining activity at 1 µM (TTBK1): 99 ± 6% | remaining activity at 1 µM (DYRK3): 55 ± 4% | remaining activity at 1 µM (HIPK3): 57 ± 7%
